Reference: article PMC8583203, “DisA Restrains the Processing and Cleavage of Reversed Replication Forks by the RuvAB-RecU Resolvasome”

Tests used:
[1] = target: T1, DisA (Bacillus subtilis, UniProt P37573 1-360); test: EMSA; conditions: 10 mM Mg2+; 0.2% glutaraldehyde; 50 mM Tris-HCl pH 7.5, 50 mM NaCl, 1 mM DTT, 0.05 mg/mL BSA, 5% glycerol, 1 or 10 mM MgCl2 or 5 mM EDTA, 15 min 37 C, 0.2 nM DNA; 0.2% glutaraldehyde before 6% …
T1 sequence: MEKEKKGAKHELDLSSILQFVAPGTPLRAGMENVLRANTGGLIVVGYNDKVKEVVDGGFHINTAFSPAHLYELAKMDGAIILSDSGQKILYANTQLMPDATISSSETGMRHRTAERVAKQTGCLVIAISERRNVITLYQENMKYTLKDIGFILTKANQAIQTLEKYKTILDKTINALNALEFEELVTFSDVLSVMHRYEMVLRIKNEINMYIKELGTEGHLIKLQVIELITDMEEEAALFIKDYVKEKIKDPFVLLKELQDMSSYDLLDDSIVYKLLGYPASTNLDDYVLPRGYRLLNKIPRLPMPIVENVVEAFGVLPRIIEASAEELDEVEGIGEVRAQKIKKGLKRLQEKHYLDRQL

[2] = target: T1, DisA; test: EMSA; 10 mM Mg2+; 0.2% glutaraldehyde; 50 mM Tris-HCl pH 7.5, 50 mM NaCl, 1 mM DTT, 0.05 mg/mL BSA, 5% glycerol, 1 or 10 mM MgCl2 or 5 mM EDTA, 15 min 37 C, 0.2 nM DNA; 0.2% glutaraldehyde before 6%; conditions: protein: recombinant, chain copies: 8, label: 32P (5' by gamma-32P)
[3] = target: T2, DisA;RecU (Bacillus subtilis;Bacillus subtilis, UniProt P37573;P39792 1-360;1-206, |); test: DNase I footprinting; preformed at 1 mM Mg2+, then 10 mM Mg2+; coexistence judged likely; 50 mM Tris-HCl pH 7.5, 50 mM NaCl, 1 mM DTT, 0.05 mg/mL BSA, 5% glycerol, 1 or 10 mM MgCl2 or 5 mM EDTA, 15 min 37 C, 0.2 nM DNA; 0.2% glutaraldehyde before 6%; conditions: protein: recombinant;recombinant; tags: ;; chain copies: 8;2; label: 32P (5' by gamma-32P); four-way junction
T2 sequence 1: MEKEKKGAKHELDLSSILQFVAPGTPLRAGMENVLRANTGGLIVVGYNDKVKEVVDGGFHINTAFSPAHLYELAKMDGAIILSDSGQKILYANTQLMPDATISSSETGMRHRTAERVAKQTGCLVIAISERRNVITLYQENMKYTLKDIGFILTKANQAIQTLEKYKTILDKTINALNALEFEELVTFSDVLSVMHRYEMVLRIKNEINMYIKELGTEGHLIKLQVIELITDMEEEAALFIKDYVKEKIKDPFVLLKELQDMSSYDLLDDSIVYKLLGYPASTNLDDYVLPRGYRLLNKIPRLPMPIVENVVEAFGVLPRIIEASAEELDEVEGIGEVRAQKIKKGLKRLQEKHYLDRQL
T2 sequence 2: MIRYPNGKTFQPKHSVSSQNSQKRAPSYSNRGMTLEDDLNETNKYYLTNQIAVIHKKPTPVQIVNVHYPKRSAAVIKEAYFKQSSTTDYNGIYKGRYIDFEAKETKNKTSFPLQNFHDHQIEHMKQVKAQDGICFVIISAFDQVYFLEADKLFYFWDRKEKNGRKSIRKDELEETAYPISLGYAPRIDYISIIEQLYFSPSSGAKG

[4] = target: T1, DisA; test: EMSA; 10 mM Mg2+; 500 uM ATP; 50 mM Tris-HCl pH 7.5, 50 mM NaCl, 1 mM DTT, 0.05 mg/mL BSA, 5% glycerol, 1 or 10 mM MgCl2 or 5 mM EDTA, 15 min 37 C, 0.2 nM DNA; 0.2% glutaraldehyde before 6%; conditions: protein: recombinant; chain copies: 8; label: 32P (5' by gamma-32P); four-way junction
[5] = target: T3, RecU (Bacillus subtilis, UniProt P39792 1-206); test: EMSA; 1 mM Mg2+; 50 mM Tris-HCl pH 7.5, 50 mM NaCl, 1 mM DTT, 0.05 mg/mL BSA, 5% glycerol, 1 or 10 mM MgCl2 or 5 mM EDTA, 15 min 37 C, 0.2 nM DNA; 0.2% glutaraldehyde before 6%; conditions: protein: recombinant; chain copies: 2; label: 32P (5' by gamma-32P); four-way junction
T3 sequence: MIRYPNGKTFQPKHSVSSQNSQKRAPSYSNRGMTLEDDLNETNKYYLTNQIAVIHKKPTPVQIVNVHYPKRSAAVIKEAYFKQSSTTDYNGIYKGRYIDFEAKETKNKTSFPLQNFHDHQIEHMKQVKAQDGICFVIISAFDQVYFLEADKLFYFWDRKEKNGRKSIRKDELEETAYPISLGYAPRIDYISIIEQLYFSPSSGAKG

[6] = target: T4, RuvA (Bacillus subtilis, UniProt O05392 1-201); test: as above; conditions: protein: recombinant; chain copies: 8; label: 32P (5' by gamma-32P); four-way junction
T4 sequence: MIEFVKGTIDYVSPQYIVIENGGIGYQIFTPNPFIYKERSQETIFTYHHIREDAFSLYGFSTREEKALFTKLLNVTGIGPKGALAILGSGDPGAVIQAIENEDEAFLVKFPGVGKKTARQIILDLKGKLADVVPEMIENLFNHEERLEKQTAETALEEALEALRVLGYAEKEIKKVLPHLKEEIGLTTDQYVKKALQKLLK

[7] = target: T5, DisA;RuvA;RuvB (Bacillus subtilis;Bacillus …, UniProt P37573;O05392;O32055 1-360;1-201;1-334, ||); test: DNase I footprinting; 10 mM Mg2+; 5 mM ATPgS; either order of addition; 50 mM Tris-HCl pH 7.5, 50 mM NaCl, 1 mM DTT, 0.05 mg/mL BSA, 5% glycerol, 1 or 10 mM MgCl2 or 5 mM EDTA, 15 min 37 C, 0.2 nM DNA; 0.2% glutaraldehyde before 6%; conditions: protein: recombinant;recombinant;native; tags: ;;; label: 32P (5' by gamma-32P); four-way junction
T5 sequence 1: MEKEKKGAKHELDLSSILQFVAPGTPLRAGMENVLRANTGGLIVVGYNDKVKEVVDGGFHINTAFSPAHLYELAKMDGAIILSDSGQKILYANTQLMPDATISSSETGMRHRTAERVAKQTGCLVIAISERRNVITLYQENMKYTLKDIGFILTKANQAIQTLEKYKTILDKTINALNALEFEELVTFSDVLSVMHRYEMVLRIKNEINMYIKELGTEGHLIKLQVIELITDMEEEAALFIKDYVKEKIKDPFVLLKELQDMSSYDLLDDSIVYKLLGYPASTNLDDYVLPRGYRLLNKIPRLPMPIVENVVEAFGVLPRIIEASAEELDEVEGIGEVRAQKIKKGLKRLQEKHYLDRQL
T5 sequence 2: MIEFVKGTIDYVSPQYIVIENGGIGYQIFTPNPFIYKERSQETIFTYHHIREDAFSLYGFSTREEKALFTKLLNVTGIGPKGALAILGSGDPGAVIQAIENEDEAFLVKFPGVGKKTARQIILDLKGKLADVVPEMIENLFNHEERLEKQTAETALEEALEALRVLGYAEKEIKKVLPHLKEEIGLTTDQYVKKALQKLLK
T5 sequence 3: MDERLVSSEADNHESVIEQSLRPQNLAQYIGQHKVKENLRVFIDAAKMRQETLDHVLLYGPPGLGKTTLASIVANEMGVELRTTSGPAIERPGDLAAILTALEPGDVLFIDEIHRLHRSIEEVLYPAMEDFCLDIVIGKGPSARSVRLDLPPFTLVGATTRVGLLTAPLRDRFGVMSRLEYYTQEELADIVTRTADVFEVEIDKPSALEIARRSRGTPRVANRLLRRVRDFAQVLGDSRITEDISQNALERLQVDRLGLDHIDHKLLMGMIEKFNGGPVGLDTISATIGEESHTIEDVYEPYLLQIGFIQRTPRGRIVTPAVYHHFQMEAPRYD

[8] = target: T6, DisA;RuvA (Bacillus subtilis;Bacillus subtilis, UniProt P37573;O05392 1-360;1-201, |); test: EMSA; 1 mM Mg2+; new R+A complex; 50 mM Tris-HCl pH 7.5, 50 mM NaCl, 1 mM DTT, 0.05 mg/mL BSA, 5% glycerol, 1 or 10 mM MgCl2 or 5 mM EDTA, 15 min 37 C, 0.2 nM DNA; 0.2% glutaraldehyde before 6%; conditions: protein: recombinant;recombinant; tags: ;; chain copies: 8;8; label: 32P (5' by gamma-32P); four-way junction
T6 sequence 1: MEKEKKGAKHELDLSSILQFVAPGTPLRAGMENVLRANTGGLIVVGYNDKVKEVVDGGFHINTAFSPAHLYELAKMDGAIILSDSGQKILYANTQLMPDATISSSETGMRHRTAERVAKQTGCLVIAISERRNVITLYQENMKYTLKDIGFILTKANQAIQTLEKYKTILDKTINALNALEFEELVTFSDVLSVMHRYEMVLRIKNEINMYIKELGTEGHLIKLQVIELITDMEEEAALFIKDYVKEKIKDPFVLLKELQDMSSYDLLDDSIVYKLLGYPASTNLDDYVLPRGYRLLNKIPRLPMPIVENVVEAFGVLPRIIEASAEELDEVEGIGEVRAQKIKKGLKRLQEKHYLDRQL
T6 sequence 2: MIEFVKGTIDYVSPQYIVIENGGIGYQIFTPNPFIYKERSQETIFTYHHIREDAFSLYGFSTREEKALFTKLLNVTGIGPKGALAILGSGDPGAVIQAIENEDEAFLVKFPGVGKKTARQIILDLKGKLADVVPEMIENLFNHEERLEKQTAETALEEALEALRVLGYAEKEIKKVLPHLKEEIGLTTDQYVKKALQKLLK

[9] = target: T7, RuvA;RuvB (Bacillus subtilis;Bacillus subtilis, UniProt O05392;O32055 1-201;1-334, |); test: DNase I footprinting; 10 mM Mg2+; 5 mM ATPgS; ~40-nt footprint; 50 mM Tris-HCl pH 7.5, 50 mM NaCl, 1 mM DTT, 0.05 mg/mL BSA, 5% glycerol, 1 or 10 mM MgCl2 or 5 mM EDTA, 15 min 37 C, 0.2 nM DNA; 0.2% glutaraldehyde before 6%; conditions: protein: recombinant;native; tags: ;; chain copies: 8;12; label: 32P (5' by gamma-32P); four-way junction
T7 sequence 1: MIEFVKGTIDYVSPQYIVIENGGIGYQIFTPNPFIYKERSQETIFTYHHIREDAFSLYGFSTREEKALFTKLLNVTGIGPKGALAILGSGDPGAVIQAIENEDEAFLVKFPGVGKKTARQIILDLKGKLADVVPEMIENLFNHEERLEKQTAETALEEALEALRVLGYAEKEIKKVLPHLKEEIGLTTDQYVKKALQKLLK
T7 sequence 2: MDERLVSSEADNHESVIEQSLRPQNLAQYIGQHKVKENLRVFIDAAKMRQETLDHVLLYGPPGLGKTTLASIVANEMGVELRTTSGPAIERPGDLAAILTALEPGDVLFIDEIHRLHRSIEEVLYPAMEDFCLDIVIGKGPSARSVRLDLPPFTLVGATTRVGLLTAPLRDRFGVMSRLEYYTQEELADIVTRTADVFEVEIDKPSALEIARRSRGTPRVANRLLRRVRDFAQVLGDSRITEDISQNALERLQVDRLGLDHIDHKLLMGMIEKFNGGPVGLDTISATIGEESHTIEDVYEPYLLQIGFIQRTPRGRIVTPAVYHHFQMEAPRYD

ssDNA (oligonucleotide not stated)
Kd [1]: 3.3 nM

B1: flayed DNA (170/173) (structured_DNA)
DNA 1: AGACGCTGCCGAATTCTGGCTTGGATCTGATGCTGTCTAGAGGCCTCCACTATGAAATCG
DNA 2: AGCTCATAGATCGATAGTCTCTAGACAGCATCAGATCCAAGCCAGAATTCGGCAGCGTCT
Kd ([2]; fork 1:2, unpaired 3' end of 170 and 5' end of 173): 3.2 ± 0.2 nM

B2: dsDNA (80-bp) (dsDNA)
DNA 1: CGCAGCGACAGGAACCTCGAGGAATTCAACCACCGCTCAACTCAACTGCAGTCTGACTCGAGGTTCCTGTCGCTTGCG
DNA 2: CGCAAGCGACAGGAACCTCGAGTCTAGACTGCAGTTGAGTTGAGCGGTGGTTGAATTCCTCGAGTTCCTGTCGCTTGCG
Kd ([2]; duplex, printed strands not exactly complementary (small deletions/insertion)): 2.6 ± 0.3 nM

B3: HJ-J3 DNA (fixed Holliday junction) (structured_DNA)
DNA 1: CGCAAGCGACAGGAACCTCGAGAAGCTTCCGGTAGCAGCCTGAGCGGTGGTTGAATTCCTCGAGGTTCCTGTCGCTTGCG
DNA 2: CGCAGCGACAGGAACCTCGAGGAATTCAACCACCGCTCAACTCAACTGCAGTCTGACTCGAGGTTCCTGTCGCTTGCG
DNA 3: CGCAAGCGACAGGAACCTCGAGTCTAGACTGCAGTTGAGTCCTTGCTAGGACGGATCCCTCAGGTTCCTGTCGCTTGCG
DNA 4: CGCAAGCGACAGGAACCTCGAGGGATCCGTCCTAGCAAGGGGCTGCTACCGGAAGCTTCTCGAGGTTCCTGTCGCTTGCG
binding result [3]: binds
Kd ([2]; four-way junction): 3 ± 0.5 nM
Kd [4]: 5.5 ± 0.3 nM
Kd [5]: 0.6 ± 0.2 nM
Kd [6]: 10 ± 2 nM
binding result [7]: binds
binding result [8]: binds
binding result [9]: binds
